Test results as given in the nanobody polyreactivity screen of Harvey et al. (2022).

Assay: yeast display, Sf9 membrane polyspecificity reagent, FACS + sequencing; frameworks hold sequencing errors
Outline: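 A nanobody's polyreactivity label depends on the gate it was sorted from. Yeast display cells were stained with 10% biotinylated, detergent-solubilized Sf9 membrane reagent for 1 hour at 4 °C, enriched on streptavidin microbeads and sorted by FACS. The low and high (top ~1%) gates were set on anti-HA fluorescence for expression and streptavidin fluorescence for reagent binding.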

Sequence	polyreactivity (PSR sort gate)
QVQLVESGGGLVQAGGSLRLSCAASGNTFYVNAMGWYRQAPGKERELVATISKRGSSTYYADSVKGRFTISRDNAKNTVFLQMNSLKPEDTAVYYCNAEGPSYYYIIYDYWGQGTQVTVSS	high polyreactivity
QVQLVESGGGLVQAGGSLRLSCAASGNTFYVNVMGWYRHAPGKEREFVAAISTRGVSTSYADSVKGRFTISRDYAKNTVYLQMNRLKPEDTAVYYCAKRFLPPGRAVTYDYWGQGTQVTVSS	high polyreactivity
QVQLVESGGGLVQAGGSLRLSCAASGNTFYYYAMGWYRQAPGKERELVASITWRGGDTYYADSVKGRFTISRDNAKNTVYLQMNSQKPEDTAVFYFAKPRLGRYDSMSYLGDYAGYVYWGQGTQVTLSS	low polyreactivity
QVQLVESGGGLVQAGGSLRLSCAASGNTIFHYAMGWYRQAPGKERELVAAISSADSTYYADSVKGRFTISRDNAKNTVYLQMNSLKPEDTAVYYCAKDRPNRPDLYDYWGQGTQVTLSS	low polyreactivity
QVQLVESGGGLVQAGGSLRLSCAASGNTIKDYTMGWYRQAPGKERELVASINSGGSTNYADSVKGRFTISRDNPKNTVYLQMNSLKPEDTAVYYSAKRAWSDYNPIDYWGQGTQVTVSS	low polyreactivity
QVQLVESGGGLVQAGGSLRLSCAASGNTIYKYTMGWSRQAPGKERELVAVISSSSGSTYYADSVKGRFTISRDNAKNTVYLQMNSLKPEDTAVYYCNKRGWWDLRHDYWGQGTQVTVSS	low polyreactivity
QVQLVESGGGLVQAGGSLRLSCAASGNTLAANAMGWYRQAPGKERELVAAITYSGGSTYYADSVKGRFTISRDNAKNTVYLQMSSLKPEDTAVYDCNAPYVFSAGFDYWGQGTQVTVSS	low polyreactivity
QVQLVESGGGLVQAGGSLRLSCAASGNTLDAYTMGWYRQAPGKERELVAAISRGGTRTYYADSVKGRFTISRDNAKNTVYLQMNSLKPEDTAVYYCNKQFPYSKYYIMGYWGQGTQVTVSS	high polyreactivity
QVQLVESGGGLVQAGGSLRLSCAASGNTLHRYVMGWYRPAPGKERELVAVITRGTSTYYADSVKGRFTISRDNAKNTVYLQMNSLKPEDTAVYYCAARYTFPYSRYDYWGQGTQVTVSS	low polyreactivity
QVQLVESGGGLVQAGGSLRLSCAASGNTLQYYAMGWYRQAPGKERELVAAITTGGSTNYADSVKARFTISRDNAKNTGYLQMNSLKPEDTAVYYCAARGGVSKRISDYWGQGTQVTVSS	low polyreactivity
QVQLVESGGGLVQAGGSLRLSCAASGNTLVKNAMGWYRQAPGKERELVAANSSSGGRTYYADSVKGRFTISRDNAKTTVYLQLNSLKPEDTAVYYCAARYPSGYYYWGQGTQVTVSS	high polyreactivity
QVQLVESGGGLVQAGGSLRLSCAASGNTLYQYAMGWYRQAPGKERELVASITWSGSSTYYADSVKGRFTISRDNAKNTVYVQMNSLKPEDPAVYYCAAYGYHRDYLYDYWGQGTQVTVSS	low polyreactivity
QVQLVESGGGLVQAGGSLRLSCAASGNTSPYSAMGWYRQAPGKEREWVAGISSGGTTNYADSVKGRFTISRDNAKNTVDLQMNSLKPVDTAVYYCAADEWYVECLGYFFAYDYWGQGTQVTVSS	low polyreactivity
QVQLVESGGGLVQAGGSLRLSCAASGNTYDPNAMGWYRQAPGKERELVAAISSDGSTKYADSVKGRFTISRDNAKNTVYLQMNSLKPEDTAVYYCAADHGYWYWYGGDNSWGQGTQVTVSS	low polyreactivity
QVQLVESGGGLVQAGGSLRLSCAASGNTYGYNAMGWYRQAPGKERELVASITWSGGSTYYADSVKGRFTISRDNAKNTVYLQMNSLKPEDTAVYYCNADVRYGRDHWGQGTQVTVSS	low polyreactivity
QVQLVESGGGLVQAGGSLRLSCAASGPIFKRNAMGWYRQAPGKERELVAAISGSGGRTNYADSVKGRFTISRDTAKNTVYLQMNSLKPEDTAVYYCAARANFFGWPKSYYYLGQGTQVTVSS	high polyreactivity
QVQLVESGGGLVQAGGSLRLSCAASGPIFLRYAIGWYRQAPGKERVLVAVISRSGSSTYYADSVKGRFTISRDNAKNTVYLQMNSLKPEDTAFYHCAAGYSWGYSSQKLRYGYLGQGTQVTVSS	high polyreactivity
QVQLVESGGGLVQAGGSLRLSCAASGPILGQYAMGWYRQAPGKDRELVAAITYSGGRTYYADSVKGRFTLSRDNAKNTVYLQMNSLKPEDTAVYYCAARGRASVERRGGYYYWGQGTQVTVSS	high polyreactivity
QVQLVESGGGLVQAGGSLRLSCAASGPTFFLYDMGWYRQAPGKERELVAAITSSGGDTYYADSVKGRFTISRDNAKNTVYLQMNSLKPEDTAVYYCAAEVWFPDRWMDYWGQGTQVTVSS	high polyreactivity
QVQLVESGGGLVQAGGSLRLSCAASGPTFPFNAMVWYRQAPGKERELVAAISWRDGRTYYADSVKGRFTISRDNAKNTVYLQMNSLKPEDTAVYYCNVVKRRSDWGMVYWGQGTQVTVSS	high polyreactivity
QVQLVESGGGLVQAGGSLRLSCAASGPTFYRYAMGWYRQAPGKERELVAAISSSGGSTYYADSVKGRFTISRDNANNTVYLQMNSLKPEDTAVYYCATGYRYASYLCNYWGHGTQVTVSS	high polyreactivity
QVQLVESGGGLVQAGGSLRLSCAASGPTIDLYAMGCYRQAPGKERELVATIRSDGSTTYADSVKGRFTISRDNAKNTVYLQLNSLKPEDTAVYDCAAAFRSGFSSSTTPVQSDWGQGTQVTVSS	low polyreactivity

Sequence	polyreactivity (PSR sort gate)
QVQLVESGGGLVQAGGSLRLSCAASGPTLRSYAMGWYRQAPGKERELVAAITRASGARTFYADSVKGRFTISRDSAKNTVYLQMNSLKPEDSAGYYCTAVGRSDLFEYWGQGTQVTVSS	high polyreactivity
QVQLVESGGGLVQAGGSLRLSCAASGQIFFVYAMGRYRQAPGKESELVAAISFSAGRTYYADSVKGRFTISRDNAKNTVYLQMNSLKPEDTAVYYCNALRQDTGHYPYDYWGQGTQVTVSS	low polyreactivity
QVQLVESGGGLVQAGGSLRLSCAASGRICDYNVMGWYRQAPGKERELVADITSSGGSTYYADSVKGRFTISRDNAKNTVYLQMNSLKPEDTAVYYCYISYFTFYDDFYYWGQGTQVTVSS	low polyreactivity
QVQLVESGGGLVQAGGSLRLSCAASGRICVTYAIGRYRQAPGKERELVAASTYSGGSTYYADSVKGRFTISRDNAKNTVYLQMNSLKPEDTAVYYCGWTYHYHRESWGQGTQVTVSS	low polyreactivity
QVQLVESGGGLVQAGGSLRLSCAASGRIDLDYDMGWYRPAAGKERELVATISSGGSTNYADSVKGRFTISRDNAKNTVYLQMNSLKPDDTAVYYCNKDYHVRYYYWGQGTQVTVSS	low polyreactivity
QVQLVESGGGLVQAGGSLRLSCAASGRIFAAYAMGWYRQAPGKERELVATITRGGSTYYADSVKGRFTISRDNAKNTVYLQMNSLKQKDTAVYYCAVKRGFTQYKPFNYWGQGTQVTVSS	high polyreactivity
QVQLVESGGGLVQAGGSLRLSCAASGRIFADYAMGWYRQAPGKEREMVADIRQSGGRTYYADSVKGRFTISRDNAKNTVYLQMNSLKPEDTAVYYCATEYGSLGDYSGKYDYWGQGTQVTVSS	low polyreactivity
QVQLVESGGGLVQAGGSLRLSCAASGRIFAFSAMGWSRQAPGKERELVAAISSGGSTYYADSVKGRFTISRDNAKNTVYLQMNSLKPEDTAVYYCAASGLYYYRYRYYYWGQGTQVTVSS	high polyreactivity
QVQLVESGGGLVQAGGSLRLSCAASGRIFAFYAMGWYRQAPGKERELVAAITSGGSTKYADSVNGRFSISRDNAKNTVYLLMNSMKPEDTAVYYCAARYRWQFRSQYDYWGQGTQVTVSS	high polyreactivity
QVQLVESGGGLVQAGGSLRLSCAASGRIFAFYVMGWYRQAPGKERELVAAITSGGNTNYADSVKGRFTISRDNAKNTVYLQMNSLKPEDTAVYYCARAWLGQYTLGTYYYWGQGTQVTVSS	low polyreactivity
QVQLVESGGGLVQAGGSLRLSCAASGRIFAGNAMGWYRQAPGKERELVAAISNGGSTYYADSVKGRFTISRDNAKNTVYLQMNSLKPEDTAVYYCNARTRLRKYQYYYWGQGTQVTVSS	high polyreactivity
QVQLVESGGGLVQAGGSLRLSCAASGRIFAGYAMGWSRQAPGKERELVASIRSSGSTYYADSVKGRFTISRDNAKNTVYLQMNSLKPEDTAVYYCATTGRRWYYPYHYWGQGTQVTVSS	high polyreactivity
QVQLVESGGGLVQAGGSLRLSCAASGRIFAGYAMGWYRKAPGKERELVASIRSSGSTYYADSVKGRFTISRDNAKNTVYLQMNSLKPEDTAVYYCAARSGYFRSRFDYWGQGTQVTVSS	high polyreactivity
QVQLVESGGGLVQAGGSLRLSCAASGRIFAGYAMGWYRQAPGKERELVATITRGGSTNYADSVKRPFTISRDNAKNTVYLQMNSLKPDDTAVYYCNADIRRHGGYAHEYWGQGTQVTVSS	low polyreactivity
QVQLVESGGGLVQAGGSLRLSCAASGRIFAGYPMGWYRQAPGKERELVATFTRGGSTNYADSVKRPFTISRDNAKNSVYLQMNSLKPEDTAVYYCNAAIRRHGGYAHEYWGQGTQVTVSS	low polyreactivity
QVQLVESGGGLVQAGGSLRLSCAASGRIFAGYPMGWYRQAPGKERELVATITRGGSTNYADSVKRPFTISRDNAKYTVYLQMNSLKPEDTAVYYCNADPGGRYPRRGYAHEGDYWGQGTQVTVSS	low polyreactivity
QVQLVESGGGLVQAGGSLRLSCAASGRIFAHYEMGWYRQAPGKERELVAAISSGGSTYYADSVKGRFTISRDNAKNTVYLQMNSLKPEDTAVYYCNKRPVRRKYDYWGQGTQVTVSS	low polyreactivity
QVQLVESGGGLVQAGGSLRLSCAASGRIFAIYAMGWYRQAPGKERELVAGITYSAGSTYYADSVKGRFTISRDNAKNTVYLQMNSLKREDTAVYYCAALEYTSHRYGYDYWGQGTQVTVSS	low polyreactivity
QVQLVESGGGLVQAGGSLRLSCAASGRIFALYAMGWYRQAPGKDRELVAAITSSDGSTYYADSVKGRFTISRDIAKNSVYFQMKSLKPEDTAVYYSAAVWWRYYQDPYYYWGQGTQVTVSS	low polyreactivity
QVQLVESGGGLVQAGGSLRLSCAASGRIFALYAMGWYRQAPGKERELVATITRSGTNTYYADSVKGRFTISRDNAKNTVYLQMNRLKPEDTAVYYCAAYRFWQRTMGYWGQGTQVTVSS	high polyreactivity
QVQLVESGGGLVQAGGSLRLSCAASGRIFAQNAMGWYRPAPGKERELVAAISWGGGGTYYADSVKGRFTISRDNAKNTVYLQMNSLKPEDTAVYYCAADSPGFGAWDRYEYWGQGTQVTVSS	low polyreactivity
